Bridge positions count the residues as written; N and C are the ends. Ends that are not written are not given here.

Sequence of Intercellular adhesion molecule-1 (ICAM-1) on JY cells (P05362 28-532 limits assumed): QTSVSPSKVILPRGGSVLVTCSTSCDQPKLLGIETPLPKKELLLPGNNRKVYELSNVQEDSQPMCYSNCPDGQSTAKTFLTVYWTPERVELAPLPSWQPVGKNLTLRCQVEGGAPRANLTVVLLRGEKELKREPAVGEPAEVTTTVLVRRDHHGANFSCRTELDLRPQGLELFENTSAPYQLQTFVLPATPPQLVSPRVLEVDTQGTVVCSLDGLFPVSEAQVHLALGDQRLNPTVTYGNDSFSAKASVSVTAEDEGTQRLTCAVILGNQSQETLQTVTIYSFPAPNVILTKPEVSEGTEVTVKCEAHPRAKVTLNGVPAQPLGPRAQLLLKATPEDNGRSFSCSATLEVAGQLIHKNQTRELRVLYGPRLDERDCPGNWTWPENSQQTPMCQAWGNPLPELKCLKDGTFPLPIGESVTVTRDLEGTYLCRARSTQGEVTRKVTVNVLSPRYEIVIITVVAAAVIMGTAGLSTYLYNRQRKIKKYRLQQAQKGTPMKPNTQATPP

This test has as its target Intercellular adhesion molecule-1 (ICAM-1) on JY cells (UniProt P05362 28-532, limits assumed). As to the kind of experiment: cell-based or functional assay.
On to CLIRMRSAC (disulfide 1-9) [IP02-I3], for which the “IC50, inhibition of JY cell aggregation, 360 minute incubation” value (“IC50, inhibition of JY cell aggregation” below) was roughly 700 µM.

As to CLVRMRSAC (disulfide 1-9) [IP02-V3], the “IC50, inhibition of JY cell aggregation” value was greater than 1000 µM.

Consider CLLRMRSLC (disulfide 1-9) [IP02-L8], for which the “IC50, inhibition of JY cell aggregation” value was greater than 1000 µM. On the same count and under the same terms, then CLLRMRSVC (disulfide 1-9) [IP02-V8], with roughly 700 µM; and CVLRMRSAC (disulfide 1-9) [IP02-V2], with greater than 1000 µM. With CLLRMKSAC (disulfide 1-9) [IP02-K6], the “IC50, inhibition of JY cell aggregation” value turned out to be 90 µM and the “fold smaller IC50 than IP01 (JY cell aggregation, 360 minutes)” value was roughly 6 fold.

The record behind these values is patent US20050048579A1, “Tertiary structures of ICAM-1/LFA-1 modulators” (priority 2003, published 2005).
